One data set deals with A431-CCK2R cells. The note with it: cited from earlier work; for Bmax: A431-CCK2R cells, nM printed only with the first value of the sentence; for Kd: same cell line (A431-CCK2R), nM printed only with the PP-F11N value.
The next data set is described as follows: in vivo. Particulars: mouse; for tissue uptake at 4 h: BALB/c nude (athymic), total radioactivity. How it is done:
Biodistribution studies were performed in female athymic BALB/c nude mice (Charles River Laboratories, Sulzfeld, Germany) with A431-CCK2R xenografts induced and animals treated as described previously. The study was approved by the Austrian Ministry of Science (2022–0.351.553). […] Statistical analysis was performed on the data sets using the unpaired two-tailed t-test with a significance level of 0.05.

Another data set has as its system A431-CCK2R xenografts. Briefly: Biodistribution up to 7 days p.i. / preclinical pharmacokinetics in A431-CCK2R xenografted BALB/c nude mice. The note with it: mouse, in vivo. The data set is classed as in vivo. The procedure:
(§1) The study was approved by the Dutch animal ethics committee (CCD) of the Radboud University and the Nijmegen Medical Centre animal ethics committee (RUDEC) (2020–0007–020). Mice were inoculated with A431-CCK2R cells (2 × 10^6 in 200 μL DMEM medium) at an age of 8–10 weeks. […] Samples were collected, weighted and measured in a gamma counter together with a 1% standard of the injected dose. Results were expressed as percentage of injected activity per gram of tissue (%IA/g), and tumour-to-organ activity ratios were calculated for selected organs. The biodistribution data were used to calculate the kinetics in mouse organs and A431-CCK2R xenografts. A detailed description of the dosimetry calculations and extrapolation from mice to humans can be found in the Supplementary Materials. A one-compartment distribution model was used to characterize the time-activity curves, which were fitted with a single-exponential function implementing Graphpad Prism software. […] Animal dosimetry was performed using the RADAR mouse phantom. The mouse phantom organ weights were used to translate the time-integrated activity concentration coefficients [TIAC] into the regular TIAC. The absorbed dose per given activity was calculated using the MIRD equation (medical internal radiation dose) and the S values obtained from the 25 g RADAR mouse phantom.

Assay in data set [1]: as above
The data set is classed as in vivo. Particulars: female, mouse, iv, total radioactivity. The procedure:
as §1

A further data set addresses T1, human CCK2R (Homo sapiens, UniProt P32239).
T1 construct: expressed in transfected cells; host or cells: A431 human epidermoid carcinoma cells, stably transfected (plasmid pCR3.1), provided by Dr. Luigi Aloj
T1 sequence (P32239 1-447): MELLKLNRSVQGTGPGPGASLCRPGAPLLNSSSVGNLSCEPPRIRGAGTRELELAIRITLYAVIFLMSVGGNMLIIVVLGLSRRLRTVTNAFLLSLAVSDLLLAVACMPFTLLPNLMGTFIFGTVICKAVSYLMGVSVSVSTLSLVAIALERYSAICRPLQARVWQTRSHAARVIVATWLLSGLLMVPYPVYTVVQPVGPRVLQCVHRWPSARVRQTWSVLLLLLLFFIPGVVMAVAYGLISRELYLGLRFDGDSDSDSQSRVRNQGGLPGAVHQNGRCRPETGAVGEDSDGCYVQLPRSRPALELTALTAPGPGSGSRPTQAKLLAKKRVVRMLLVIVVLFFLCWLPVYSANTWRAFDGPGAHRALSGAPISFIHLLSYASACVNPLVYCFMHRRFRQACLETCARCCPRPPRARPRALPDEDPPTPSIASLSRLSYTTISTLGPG
Briefly: Saturation binding on A431-CCK2R cells. Particulars: 4°C, read-out: dissociation constant (Kd). The procedure:
The saturation binding assay was performed on A431-CCK2R cells plated 2 days prior to the assay at a density of 1×10^6 cells per well in 6-well plates. […] Before recovering the cell-associated radioactivity from the wells by using 1 M NaOH (two times), cells were washed twice with ice-cold phosphate-buffered saline (PBS). The radioactivity was then counted using a gamma counter (2480 Wizard2 3”, PerkinElmer Life Sciences and Analytical Instruments, formerly Wallac Oy, Turku, Finland) and non-specific binding was subtracted. For normalization to the number of cells, cells from three different wells were trypsinized and counted by Beckman Coulter Vi-CELL AS cell viability analyser (Beckman Coulter, Fullerton, CA, USA). Three independent assays were performed in triplicate. Binding curves were analysed using GraphPad Prism version 10.1.2 for Windows (GraphPad Software, Boston, Massachusetts USA).

[2] abbreviates: female, iv, 20 pmol peptide, kidney uptake.
Setting [3] is: female, iv, 20 pmol peptide, stomach uptake.
[4] abbreviates: female, iv, 20 pmol peptide, tumour uptake.
[5] abbreviates: BALB/c nude (athymic), in vivo, 20 pmol of peptide, Uptake, A431-CCK2R tumour.
Where [6] appears, read: BALB/c nude (athymic), in vivo, 20 pmol of peptide, Uptake, blood.
The mark [7] stands for this setting: BALB/c nude (athymic), in vivo, 20 pmol of peptide, Uptake, heart.
Where [8] appears, read: BALB/c nude (athymic), in vivo, 20 pmol of peptide, Uptake, kidney.
The mark [9] stands for this setting: BALB/c nude (athymic), in vivo, 20 pmol of peptide, Uptake, liver.
Where [10] appears, read: BALB/c nude (athymic), in vivo, 20 pmol of peptide, Uptake, lung.
Setting [11] is: BALB/c nude (athymic), in vivo, 20 pmol of peptide, Uptake, pancreas.
The mark [12] stands for this setting: BALB/c nude (athymic), in vivo, 20 pmol of peptide, Uptake, stomach.
Where [13] appears, read: athymic BALB/c nude, in vivo, Uptake, femur.
The mark [14] stands for this setting: athymic BALB/c nude, in vivo, Uptake, heart.
[15] abbreviates: athymic BALB/c nude, in vivo, Uptake, intestine.
Where [16] appears, read: athymic BALB/c nude, in vivo, Uptake, muscle.
[17] abbreviates: athymic BALB/c nude, in vivo, Uptake, spleen.

These results are taken from PMC11839890 (European Journal of Nuclear Medicine and Molecular Imaging, 2024).

Read-outs that look alike come from different tables or passages of the source. Non-standard residues stand in square brackets, D forms with d. Residues, ends and D or L forms follow the SMILES beside them. *: point of attachment. DOTA = O=C(O)CN1CCN(CC(=O)O)CCN(CC(=O)*)CCN(CC(=O)O)CC1; 1Nal = N[C@@H](Cc1cccc2ccccc12)C(=O)O; NMeNle = CCCC[C@H](NC)C(=O)O

For the compound “[^111In]In-DOTA-PP-F11: 111In-labelled DOTA-(DGlu)6-Ala-Tyr-Gly-Trp-Met-Asp-Phe-NH2 (AYGWMDF; 111In-DOTA-(DGlu)6, C-terminal amide; printed: Ala-Tyr-Gly-Trp-Met-Asp-Phe-)”, in the data set on A431-CCK2R cells, the Bmax is reported as 1.21 ± 0.06 nM and the Kd (in general, the constant that tells how readily two partners part at equilibrium) was 15.9 ± 2.2 nM.
As for `CSCC[C@H](NC(=O)[C@H](Cc1c[nH]c2ccccc12)NC(=O)CNC(=O)[C@H](Cc1ccc(O)cc1)NC(=O)[C@H](C)NC(=O)[C@@H](CCC(=O)O)NC(=O)CN1CCN(CC(=O)O)CCN(CC(=O)O)CCN(CC(=O)O)CC1)C(=O)N[C@@H](CC(=O)O)C(=O)N[C@@H](Cc1cccc2ccccc12)C(N)=O` [[^111In]In-DOTA-[1Nal^8]MG11, metal not drawn] ({DOTA}-[dE]AYGWMD[1Nal]-NH2), the tissue uptake at 4 h was 1.1 ± 0.1 %ID/g in “in vivo” (setting [2]), 1.2 ± 0.3 %ID/g in the data set “in vivo” (setting [3]) and 1.2 ± 0.2 %ID/g in “in vivo” (setting [4]).
In the case of “[^177Lu]Lu-DOTA-PP-F11: 177Lu-labelled DOTA-(DGlu)6-Ala-Tyr-Gly-Trp-Met-Asp-Phe-NH2 (AYGWMDF; 177Lu-DOTA-(DGlu)6, C-terminal amide; printed: Ala-Tyr-Gly-Trp-Met-Asp-Phe-)”, in the data set on A431-CCK2R cells, the Bmax is recorded as 0.65 ± 0.06 nM and the Kd was 41.7 ± 9.7 nM.
Consider `CCCC[C@@H](C(=O)N[C@@H](CC(=O)O)C(=O)N[C@@H](Cc1cccc2ccccc12)C(N)=O)N(C)C(=O)[C@H](Cc1c[nH]c2ccccc12)NC(=O)CNC(=O)[C@H](Cc1ccc(O)cc1)NC(=O)[C@H](C)NC(=O)[C@@H](CCC(=O)O)NC(=O)CN1CCN(CC(=O)O)CCN(CC(=O)O)CCN(CC(=O)O)CC1` [[^111In]In-DOTA-MGS5, metal not drawn], for which the results for the tissue uptake at 4 h in the data set “in vivo” (setting [2]) and in “in vivo” (setting [3]) were 3.9 ± 0.5 %ID/g and 8.2 ± 2.4 %ID/g, respectively.
In the case of `CCCC[C@@H](C(=O)N[C@@H](CC(=O)O)C(=O)N[C@@H](Cc1ccccc1)C(N)=O)N(C)C(=O)[C@H](Cc1c[nH]c2ccccc12)NC(=O)CNC(=O)[C@H](Cc1ccc(O)cc1)NC(=O)[C@H](C)NC(=O)[C@@H](CCC(=O)O)NC(=O)CN1CCN(CC(=O)O)CCN(CC(=O)O)CCN(CC(=O)O)CC1` [[^111In]In-DOTA-[(N-Me)Nle^6]MG11, metal not drawn] ({DOTA}-[dE]AYGW[NMeNle]DF-NH2), the tissue uptake at 4 h in the data set “in vivo” (setting [2]) amounted to 3 ± 0.3 %ID/g; in “in vivo” (setting [3]), 2.9 ± 0.6 %ID/g; in the data set “in vivo” (setting [4]), 12.3 ± 4.2 %ID/g.
Regarding `CCCC[C@@H](C(=O)N[C@@H](CC(=O)O)C(=O)N[C@@H](Cc1cccc2ccccc12)C(N)=O)N(C)C(=O)[C@H](Cc1c[nH]c2ccccc12)NC(=O)CNC(=O)[C@H](Cc1ccc(O)cc1)NC(=O)[C@H](C)NC(=O)[C@@H](CCC(=O)O)NC(=O)CN1CCN(CC(=O)O)CCN(CC(=O)O)CCN(CC(=O)O)CC1` [[^177Lu]Lu-DOTA-MGS5, metal not drawn], the “Uptake, blood” value in the data set with A431-CCK2R xenografts (female, BALB/c nude (athymic), iv, 20 pmol of peptide, 24 h) was 0.013±0.002 %IA/g. Further, in the data set with A431-CCK2R xenografts (female, athymic BALB/c nude), the “half-life of blood clearance” value worked out at 2.8 h. Besides, the “biological half-life of clearance from the tumour” value in the data set on A431-CCK2R xenografts was determined as 18.2 h. Moreover, the tissue uptake at 1 h is 68.1 ± 10 %ID/g in data set [1] (BALB/c nude (athymic), A431-CCK2R tumour xenograft, 20 pmol of peptide, A431-CCK2R xenograft, 1h p.i., i.v., n = 5, read-out: Uptake, A431-CCK2R tumour); 1.9 ± 0.4 %ID/g in data set [1] (setting [6]); 0.8 ± 0.2 %ID/g in data set [1] (setting [7]); 3.7 ± 0.4 %ID/g in data set [1] (setting [8]); 1.3 ± 0.2 %ID/g in data set [1] (setting [9]); 4.6 ± 1.9 %ID/g in data set [1] (setting [10]). The tissue uptake at 1 h in data set [1] (setting [11]) was 1.7 ± 0.5 %ID/g; in data set [1] (setting [12]), 8.1 ± 0.9 %ID/g; in data set [1] (setting [13]), 0.3 ± 0.1 %ID/g; in data set [1] (setting [15]), 1.1 ± 0.3 %ID/g; in data set [1] (setting [16]) it was 0.3 ± 0.2 %ID/g; in data set [1] (setting [17]), 0.6 ± 0.1 %ID/g. Also, the tissue uptake at 24 h stood at 28.9 ± 7.2 %ID/g in data set [1] (setting [5]); 0.01 ± 0.002 %ID/g in data set [1] (setting [6]); 0.05 ± 0.01 %ID/g in data set [1] (setting [7]); 2 ± 0.2 %ID/g in data set [1] (setting [8]); 0.5 ± 0.1 %ID/g in data set [1] (setting [9]); 0.2 ± 0.1 %ID/g in data set [1] (setting [10]). The tissue uptake at 24 h in data set [1] (setting [11]) is 0.9 ± 0.2 %ID/g; in data set [1] (setting [12]) it was 4.9 ± 0.4 %ID/g; in data set [1] (setting [13]) it was 0.052 ± 0.008 %ID/g; in data set [1] (setting [15]), 0.17 ± 0.02 %ID/g; in data set [1] (setting [16]), 0.04 ± 0.01 %ID/g. In addition, the tissue uptake at 72 h in data set [1] (setting [5]) stood at 12.6 ± 0.3 %ID/g; in data set [1] (setting [6]) it was 0.004 ± 0.002 %ID/g; in data set [1] (setting [8]), 1 ± 0.1 %ID/g; in data set [1] (setting [9]), 0.2 ± 0.1 %ID/g; in data set [1] (setting [10]), 0.1 ± 0.04 %ID/g; in data set [1] (setting [11]), 0.7 ± 0.2 %ID/g. Also, the tissue uptake at 72 h in data set [1] (setting [13]) is 0.032 ± 0.007 %ID/g; in data set [1] (setting [14]), 0.026 ± 0.005 %ID/g; in data set [1] (setting [15]) it was 0.1 ± 0.01 %ID/g; in data set [1] (setting [16]) it was 0.01 ± 0.003 %ID/g. In addition, the tissue uptake at 168 h in data set [1] (setting [5]) turned out to be 2 ± 0.5 %ID/g; in data set [1] (setting [6]), 0.01 ± 0.01 %ID/g; in data set [1] (setting [8]) it was 0.4 ± 0.1 %ID/g; in data set [1] (setting [9]), 0.08 ± 0.01 %ID/g; in data set [1] (setting [10]), 0.04 ± 0.01 %ID/g; in data set [1] (setting [11]) it was 0.6 ± 0.1 %ID/g. Further, the tissue uptake at 168 h in data set [1] (setting [12]) was determined as 1.3 ± 0.1 %ID/g; in data set [1] (setting [13]) it was 0.06 ± 0.02 %ID/g; in data set [1] (setting [14]), 0.018 ± 0.004 %ID/g; in data set [1] (setting [15]), 0.04 ± 0.01 %ID/g; in data set [1] (setting [16]), 0.018 ± 0.005 %ID/g; in data set [1] (setting [17]), 0.09 ± 0.01 %ID/g. For the same compound, the tissue uptake at 4 h in “in vivo” (uptake in A431-CCK2R xenografts) was 22.9 ± 4.7 %ID/g; in the data set “in vivo” (female, iv, 20 pmol peptide, uptake in A431-CCK2R xenografts), 31.9 ± 12.8 %ID/g. Also, the tissue uptake in the data set “in vivo” (female, athymic BALB/c nude, tumour uptake) is around 23 %ID/g. Further, the Kd on human CCK2R is 5.25 ± 1.61 nM.
